This note sets out measurements from patent US20240117334A1, “FACTOR B PROTEASES” (Vertex Pharmaceuticals Incorporated, priority 2021, published 2024).

The EC50 is the concentration needed to bring the measured effect to its halfway point.

Changes are numbered by the printed parent chain. Names and notes keep the numbering of the source. Values joined by “and” are separate entries in the source; they are usually repeats but may differ in a detail not shown here. Equal entries are not always repeated. Where two headings read alike, the source gives them in different places.

Data set [1] is described as follows: Baseline stability in indirect and MTSP buffer (+/-EDTA) and PBS at 37° C., peptide substrate EGVDAE-QF. To be noted: indirect buffer pH 7.4, MTSP buffer. In kind it is physicochemical. The method, then:
Further, various chymase-based engineered proteases were tested to evaluate their baseline stability, by testing the effects of indirect and MTSP buffer (+/−EDTA) on the chymase-based engineered proteases. The peptide substrate EGVDAE-QF (SEQ ID NO: 52) was used for these experiments.
FIGS. 4A-4E depict graphs showing the stability of five different chymase proteases tested using a peptide substrate, in PBS, at 37° C.

The next data set has as its system serpins. Put plainly: Serpin inhibition tests of chymase-based engineered proteases. It counts as biochemical. The method, then: Inhibition tests were carried out using chymase-based engineered proteases. Various serpins, which are capable of inhibiting protease activity, were used to test whether these could be used for adequate inhibition of the tested chymase-based engineered proteases, to enable selection of an engineered protease resistant to inhibition in plasma. All references in this Example to engineered proteases are depicted in chymotrypsin numbering. The chymotrypsin numbering key for the modified protease domains of engineered proteases are found in Tables 2, 4, and 6 for uPA, MTSP-1, and chymase, respectively.

A short description of data set [2]: Half-life in 50% human plasma of chymase-based engineered proteases. In kind it is in vitro ADME. The following applies: EGVD′AE substrate. The method, then:
Table 10B presents human Factor B cleavage by various engineered chymase-, MTSP-1-, or uPA-based proteases, tested in mouse or human plasma. For ELISA analysis of Factor B cleavage, briefly, anti-Ba was used, and Bb was detected with anti-Bb. A dynamic range of 25-1600 pM was used. Half-life in 50% human plasma was also calculated for various chymase-based engineered proteases.

In data set [3] the target is T1, Human Factor B (Homo sapiens, UniProt P00751). Put plainly: Human Factor B cleavage EC50 in 80% human plasma (Table 10A). It counts as biochemical. The method, then: Cleavage of Factor B by various engineered proteases was evaluated. Engineered chymase-, MTSP-1-, and uPA-based proteases were tested. All references in this Example, including Tables 10A, 10B, 11A, and 11B, to engineered proteases are depicted in chymotrypsin numbering. The chymotrypsin numbering key for the modified protease domains of engineered proteases are found in Tables 2, 4, and 6 for uPA, MTSP-1, and chymase, respectively. These experiments were also performed to evaluate the stability of non-naturally occurring chymases in various media, including cynomolgus monkey vitreous humor, human plasma, and phosphate buffered saline (PBS). Briefly, Factor B was diluted into an assay buffer and incubated at 37° C. with naturally occurring (wild type) and non-naturally occurring (engineered) proteases in vitreous humor, plasma, or PBS, and the reactions were quenched with HCl at various time points. The time points tested for chymase include T=0 which used 6 hours pre-incubation, T=2 hours which used 4 hours pre-incubation, T=4 hours which used 2 hours pre-incubation, and T=6 hours which used 0 hours pre-incubation. Assaying of the sample was performed with ELISA, or alpha screen for human C3 cleavage, using standard protocols.
A summary of the results is presented in Tables 10A-10B below, showing the various tested proteases, the concentration of the protease used in nM and the EC50 of human Factor B cleavage. Table 10 presents human Factor B cleavage by various non-naturally occurring chymase-based engineered proteases, tested in 80% human plasma, compared against a chymase comprising the mutation string […]. Blank cells indicate that a test was not performed for a particular protease mutation string.

Data set [4] has as its target T1, Human Factor B. Described as above. It counts as biochemical. The following applies: chymase-based; 64% plasma; read-out: fB Cleavage, 64% plasma EC50.

T1 sequence (P00751 26-764): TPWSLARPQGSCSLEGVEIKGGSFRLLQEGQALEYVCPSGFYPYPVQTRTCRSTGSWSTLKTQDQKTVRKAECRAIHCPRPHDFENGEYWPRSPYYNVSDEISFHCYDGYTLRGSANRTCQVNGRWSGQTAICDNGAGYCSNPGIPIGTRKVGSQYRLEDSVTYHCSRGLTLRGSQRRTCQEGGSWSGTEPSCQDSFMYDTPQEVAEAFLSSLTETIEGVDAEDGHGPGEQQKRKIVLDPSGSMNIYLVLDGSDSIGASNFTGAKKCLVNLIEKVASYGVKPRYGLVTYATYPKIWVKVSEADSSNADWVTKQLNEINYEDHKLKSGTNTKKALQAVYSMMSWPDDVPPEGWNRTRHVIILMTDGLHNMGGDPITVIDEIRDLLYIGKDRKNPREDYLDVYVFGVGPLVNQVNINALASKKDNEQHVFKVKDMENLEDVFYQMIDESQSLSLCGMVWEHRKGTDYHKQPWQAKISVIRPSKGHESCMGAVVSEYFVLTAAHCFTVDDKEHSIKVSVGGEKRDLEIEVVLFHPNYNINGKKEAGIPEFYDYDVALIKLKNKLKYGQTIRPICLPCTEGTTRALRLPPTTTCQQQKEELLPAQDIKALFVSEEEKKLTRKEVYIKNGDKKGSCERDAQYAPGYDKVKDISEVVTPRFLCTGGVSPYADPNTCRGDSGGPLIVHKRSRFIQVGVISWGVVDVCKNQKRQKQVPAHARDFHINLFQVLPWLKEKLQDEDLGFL

B1: Wild type or naturally occurring chymase: wild type human mast cell chymase protease domain (SEQ ID NO: 6) (protein, listed as Homo sapiens)
chain: IIGGTECKPHSRPYMAYLEIVTSNGPSKFCGGFLIRRNFVLTAAHCAGRSITVTLGAHNITEEEDTWQKLEVIKQFRHPKYNTSTLHHDIMLLKLKEKASLTLAVGTLPFPSQFNFVPPGRMCRVAGWGRTGVLKPGSDTLQEVKLRLMDPQACSHFRDFDHNLQLCVGNPRKTKSAFKGDSGGPLLCAGVAQGIVSYGRSDAKPPAVFTRISHYRPWINQILQAN
As for B1, the “stability (remaining activity) in buffers, peptide substrate” value in data set [1] is given as “loss of activity in all buffers”.

B2: C22S/F173Y/D175N/A226R: chymase-based engineered protease (protein, listed as Homo sapiens)
chain: B1 chain with C7S, F157Y, D159N, A207R
For B2, the kapp with serpins (Plasma Inhibitor: ACT) came to 428 M⁻¹ s⁻¹; in the data set on serpins (Plasma Inhibitor: alpha-2-marcroglobin (A2M)) it was 645 M⁻¹ s⁻¹. In addition, the “t1/2 in 50% human plasma (min) (EGVD′AE)(SEQ ID NO: 13)” value in data set [2] is 7.3 min and 9.0 min. In addition, the EC50 is 170 nM with Human Factor B [3] (Table 20, cleavage activity as of Table 10, unit inferred, read-out: EC50 Fb Cleavage); 151 to 182 nM and 177 nM with Human Factor B [3] (chymase-based engineered proteases, no plasma stated, read-out: fB Cleavage EC50); 6 µM and 5.62 µM in the data set with Human Factor B [4].
